From paper PMC10945505 (2024)

B1: LRP6E3E4 (protein)
chain: EAFLLFSRRADIRRISLETNNNNVAIPLTGVKEASALDFDVTDNRIYWTDISLKTISRAFMNGSALEHVVEFGLDYPEGMAVDWLGKNLYWADTGTNRIEVSKLDGQHRQVLVWKDLDSPRALALDPAEGFMYWTEWGGKPKIDRAAMDGSERTTLVPNVGRANGLTIDYAKRRLYWTDLDTNLIESSNMLGLNREVIADDLPHPFGLTQYQDYIYWTDWSRRSIERANKTSGQNRTIIQGHLDYVMDILVFHSSRQSGWNECASSNGHCSHLCLAVPVGGFVCGCPAHYSLNADNRTCSAPTTFLLFSQKSAINRMVIDEQQSPDIILPIHSLRNVRAIDYDPLDKQLYWIDSRQNMIRKAQEDGSQGFTVVVSSVPSQNLEIQPYDLSIDIYSRYIYWTCEATNVINVTRLDGRSVGVVLKGEQDRPRAVVVNPEKGYMYFTNLQERSPKIERAALDGTEREVLFFSGLSKPIALALDSRLGKLFWADSDLRRIESSDLSGANRIVLEDSNILQPVGLTVFENWLYWIDKQQQMIEKIDMTGREGRTKVQARIAQLSDIHAVKELNLQEYRQHPCAQDNGGCSHICLVKGDGTTRCSCPMHLVLLQDELSCGEP
B2: F-FGF21ΔN (other)
chain: QRYLYTDDAQQTEAHLEIREDGTVGGAADQSPESLLQLKALKPGVIQILGVKTSRFLCQRPDGALYGSLHFDPEACSFRERLLEDGYNVYQSEAHGLPLHLPGNKSPHRDPAPRGPARFLPLPGLPPALPEPPGILAPQPPDVGSSDPLSMVGGSQGRSPSYES
B3: F-FGF21FL (other)
chain: HPIPDSSPLLQFGGQVRQRYLYTDDAQQTEAHLEIREDGTVGGAADQSPESLLQLKALKPGVIQILGVKTSRFLCQRPDGALYGSLHFDPEACSFRERLLEDGYNVYQSEAHGLPLHLPGNKSPHRDPAPRGPARFLPLPGLPPALPEPPGILAPQPPDVGSSDPLSMVGGSQGRSPSYES

What was measured:
Assay in all cases: BLI
L-αGFP = target: L-αGFP
L-39F7 = target: L-39F7
Human βKlotho = Human βKlotho (human, UniProt Q86Z14 1-996)
FZD7 CRD = FZD7 CRD (Homo sapiens)

Row | Binder | Kd (L-αGFP) | Kd (L-39F7) | Kd (Human βKlotho) | Kd (FZD7 CRD)
1 | B1 | 9.7 nM | 6.4 nM | – | –
2 | B2 | – | – | 11.8 nM | 82.5 nM
3 | B3 | – | – | 10.1 nM | 92.3 nM
